The test addresses recombinant SARS-CoV-2^RBD (biotinylated, AVI-tagged) (SARS-CoV-2) (UniProt P0DTC2). The experiment in a line: BLI.

On to “N. vison ACE2 used in biolayer interferometry (domain or fragment)”, for which the Kd was found to be 1.5 nM.

The record behind these values is article PMC12290059.
